According to doi:10.1101/2025.09.05.674518 (bioRxiv, 2025):

T1: M527D MXA (Homo sapiens, UniProt P20591)
T1 chain: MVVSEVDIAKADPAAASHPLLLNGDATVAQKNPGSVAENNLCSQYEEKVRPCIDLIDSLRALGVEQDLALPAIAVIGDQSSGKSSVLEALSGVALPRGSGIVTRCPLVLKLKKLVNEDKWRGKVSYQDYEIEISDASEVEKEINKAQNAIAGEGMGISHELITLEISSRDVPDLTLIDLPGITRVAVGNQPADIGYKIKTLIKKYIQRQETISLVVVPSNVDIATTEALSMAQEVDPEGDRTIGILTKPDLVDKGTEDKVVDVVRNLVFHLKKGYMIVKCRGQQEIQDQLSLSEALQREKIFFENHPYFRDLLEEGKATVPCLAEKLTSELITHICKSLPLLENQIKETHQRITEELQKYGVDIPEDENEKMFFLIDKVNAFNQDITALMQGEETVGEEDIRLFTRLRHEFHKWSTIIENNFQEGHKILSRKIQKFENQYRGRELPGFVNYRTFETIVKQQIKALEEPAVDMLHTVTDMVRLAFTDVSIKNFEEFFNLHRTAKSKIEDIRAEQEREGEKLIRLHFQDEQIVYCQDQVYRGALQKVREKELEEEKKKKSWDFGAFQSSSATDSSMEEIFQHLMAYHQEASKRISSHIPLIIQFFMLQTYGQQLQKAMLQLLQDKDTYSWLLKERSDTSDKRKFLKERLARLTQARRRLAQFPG


Key:
M527D MXA = target: T1, M527D MXA
[1] = target: wild-type human MXA (Myxovirus resistance protein A), MAPPIT bait or prey (Homo sapiens, UniProt P20591)
[2] = target: recombinant wild-type human MXA (Homo sapiens, UniProt P20591); experiment: ELISA

binding result (M527D MXA)	binding result [1]	binding result [2]	Binder
binds	binds	–	VHH93 (VHH) QVQLQESGGGLVQAGDSLRLSCVVSGRFLSGYAVGWFRQAPGNERDFVAAFTWIGGQTSYADSVKGRFTVSRDNAKNTLYLQMNNLKPEDTAVYYCAAKVAIVPPTTARGYDYWGQGTQVTVSS
binds	binds	–	VHH88 (VHH) QVQLQESGGGLVQAGDSLTLSCARSGRIFNSVPMGWFRQAPGKEREIVAAISGNGVNTYYADSVKGRFAISRDSAKNTYLQMSSLKPEDTAVYYCAARVTPWDTRYYLDDYQYWGQGTQVTVSS
binds	binds	–	VHH97 (VHH) QVQLQESGGGLVQAGGSLRLSCAKSGRIFSSVPMGWFRQAPGKEREIVAAISGNGENTYYADSVKGRFTISRDNAKNTYLQMSSLKPEDTAVYYCAARVTPWDSRYYLDDYHYWGQGTQVTVSS

The remaining lines, values behind:

Binder	binding result (M527D MXA)	binding result [1]	binding result [2]
VHH7, His6-tagged, purified from Pichia pastoris (VHH) VHH: QVQLQESGGGLVQAGDSLRLSCANSGRTRSAMGWFRQAPGKEREFVAAITWSGYGTYYADSVKGRFTISRDNAKNALYLRMNSLKPDDTAVYYCAARRNQYYSYSSASADYDYWGQGTQVTVSS	–	–	binds
VHH5, His6-tagged, purified from Pichia pastoris (VHH) VHH: QVQLQESGGGLVQAGDSLILSCAASGRTFSSSAMGWFRQAPGKEREFVAAITYSGISTEYADSVKGRFTISRDNPKSTLYLRMNSLKAEDTAVYYCAARRNGYYSRSHYSTDYEYWGRGTQVTVSS	–	–	binds
